Assay results as given in FireProtDB (doi:10.1002/pro.2375).

B1: Amylosucrase, Q9ZEU2 (parent)
chain: MLTPTQQVGLILQYLKTRILDIYTPEQRAGIEKSEDWRQFSRRMDTHFPKLMNELDSVYGNNEALLPMLEMLLAQAWQSYSQRNSSLKDIDIARENNPDWILSNKQVGGVCYVDLFAGDLKGLKDKIPYFQELGLTYLHLMPLFKCPEGKSDGGYAVSSYRDVNPALGTIGDLREVIAALHEAGISAVVDFIFNHTSNEHEWAQRCAAGDPLFDNFYYIFPDRRMPDQYDRTLREIFPDQHPGGFSQLEDGRWVWTTFNSFQWDLNYSNPWVFRAMAGEMLFLANLGVDILRMDAVAFIWKQMGTSCENLPQAHALIRAFNAVMRIAAPAVFFKSEAIVHPDQVVQYIGQDECQIGYNPLQMALLWNTLATREVNLLHQALTYRHNLPEHTAWVNYVRSHDDIGWTFADEDAAYLGISGYDHRQFLNRFFVNRFDGSFARGVPFQYNPSTGDCRVSGTAAALVGLAQDDPHAVDRIKLLYSIALSTGGLPLIYLGDEVGTLNDDDWSQDSNKSDDSRWAHRPRYNEALYAQRNDPSTAAGQIYQGLRHMIAVRQSNPRFDGGRLVTFNTNNKHIIGYIRNNALLAFGNFSEYPQTVTAHTLQAMPFKAHDLIGGKTVSLNQDLTLQPYQVMWLEIA

Variants of: B1
Conditions: Neisseria polysaccharea; pH 7; Thermal; DSF; Tris 50 mM; structure 1G5A; whole UniProt chain shown

Variant	change of melting temperature, mutant - wild type (higher = more stable)
H400I	-0.2 °C
H400Y	2 °C
H400C	0.8 °C
H400V	0.2 °C
H400T	0.4 °C
H400E	0.4 °C
H400W	0.4 °C
H400G	0.8 °C
H400S	0.2 °C
H400N	-0.2 °C
H400K	-1.6 °C
H400L	-0.4 °C
H400P	2.2 °C
H400Q	-0.4 °C
H400F	-2.4 °C
H400M	0.4 °C
H195Y	-3.2 °C
H195Q	-3 °C
H195V	-4 °C
H195K	-0.4 °C
H195M	-0.2 °C
H195W	-5.8 °C
H195R	-5 °C
H195C	-0.2 °C

Variant	change of melting temperature, mutant - wild type (higher = more stable)
H195N	-1.4 °C
H195D	-3.4 °C
H195L	-6.4 °C
H195G	-2.8 °C
H195I	-6.6 °C
H195T	-4 °C
H195A	-1.6 °C
F258N	-3.2 °C
F258Y	-0.8 °C
D152E	-1.4 °C
D152I	-1.6 °C
D152A	0.2 °C
R454E	-2.2 °C
R454F	0.2 °C
R454A	-0.2 °C
R517A	0 °C
Y155A	-1 °C
Y155N	-1 °C
Y155F	-0.2 °C
D515A	0.8 °C
D515I	0.6 °C
R292K	1.6 °C
R292V	1.8 °C
R292H	0.4 °C
